Test results from the supplement of paper PMC10065799, “High-throughput profiling of sequence recognition by tyrosine kinases and SH2 domains using bacterial peptide display” (eLife, 2023).

Tests used:
Fes = Fes (UniProt P07332); assay: phosphorylation enrichment, bacterial display (enrichment ratio); higher = better substrate or ligand; peptides without Tyr show the background
EPHB2 = EPHB2 (UniProt P29323); assay: as above
AncSZ = assay: as above
Fer (mouse) = assay: as above
MERTK = MERTK (UniProt Q12866); assay: as above
c-Src = assay: as above
FGFR1 = FGFR1 (UniProt P11362); assay: as above
Fyn = Fyn (UniProt P06241); assay: as above
c-Abl (mouse) = assay: as above
FGFR3 = FGFR3 (UniProt P22607); assay: as above
Hck = Hck (UniProt P08631); assay: as above
Jak2 = Jak2 (UniProt O60674); assay: as above
EPHB1 = EPHB1 (UniProt P54762); assay: as above
Grb2 SH2 = Grb2 SH2 (UniProt P62993); assay: SH2 binding enrichment of the phosphorylated peptide, bacterial display (enrichment ratio); higher = better substrate or ligand; peptides without Tyr show the background
c-Src SH2 = assay: as above
SHP2-C SH2 = assay: as above
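Wherever SH2 binding enrichment of the phosphorylated peptide, bacterial display is given: peptide library displayed on the E. coli surface as eCPX fusions, selected cells deep-sequenced, score is each peptide's frequency after selection divided by its frequency in the input.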
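Wherever phosphorylation enrichment, bacterial display is given: 11-residue human phosphosite peptides and single-mutation variants displayed on the E. coli surface, counted by deep sequencing, each peptide's frequency after selection divided by its frequency in the unselected input library; frequency after pTyr selection over input frequency; kinase dosed for 20-30% of maximal phosphorylation in three min.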

Sequence of Jak2 (O60674 whole entry, looked up): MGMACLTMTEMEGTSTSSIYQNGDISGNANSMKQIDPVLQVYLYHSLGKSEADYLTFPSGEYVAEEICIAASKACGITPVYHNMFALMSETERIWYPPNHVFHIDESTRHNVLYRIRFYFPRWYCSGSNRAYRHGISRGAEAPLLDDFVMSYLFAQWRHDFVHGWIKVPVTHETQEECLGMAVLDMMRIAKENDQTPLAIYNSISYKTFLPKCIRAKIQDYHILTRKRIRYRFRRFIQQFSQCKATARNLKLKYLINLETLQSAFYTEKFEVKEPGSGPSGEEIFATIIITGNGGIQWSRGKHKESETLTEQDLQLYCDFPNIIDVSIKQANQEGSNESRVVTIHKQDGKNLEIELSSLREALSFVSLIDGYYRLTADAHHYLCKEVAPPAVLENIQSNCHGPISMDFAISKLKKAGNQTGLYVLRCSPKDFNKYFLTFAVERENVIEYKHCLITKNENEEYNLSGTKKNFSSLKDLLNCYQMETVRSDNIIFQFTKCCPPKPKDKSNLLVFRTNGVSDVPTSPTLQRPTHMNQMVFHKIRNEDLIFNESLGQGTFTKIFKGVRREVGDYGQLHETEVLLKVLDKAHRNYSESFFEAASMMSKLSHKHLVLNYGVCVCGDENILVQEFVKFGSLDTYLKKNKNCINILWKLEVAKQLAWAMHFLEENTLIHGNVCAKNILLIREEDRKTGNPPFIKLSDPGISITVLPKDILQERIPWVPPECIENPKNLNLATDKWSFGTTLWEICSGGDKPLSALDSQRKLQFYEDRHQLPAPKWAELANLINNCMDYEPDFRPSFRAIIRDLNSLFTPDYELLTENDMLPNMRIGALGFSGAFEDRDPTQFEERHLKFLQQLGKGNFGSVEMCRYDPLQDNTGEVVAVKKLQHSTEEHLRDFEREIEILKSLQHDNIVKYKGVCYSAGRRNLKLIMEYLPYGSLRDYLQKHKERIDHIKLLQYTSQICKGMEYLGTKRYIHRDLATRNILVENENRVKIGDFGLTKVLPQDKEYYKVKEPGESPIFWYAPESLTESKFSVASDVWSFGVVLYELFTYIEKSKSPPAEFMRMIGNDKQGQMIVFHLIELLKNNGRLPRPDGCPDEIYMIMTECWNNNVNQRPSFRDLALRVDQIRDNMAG
Sequence of Grb2 SH2 (P62993 whole entry, looked up): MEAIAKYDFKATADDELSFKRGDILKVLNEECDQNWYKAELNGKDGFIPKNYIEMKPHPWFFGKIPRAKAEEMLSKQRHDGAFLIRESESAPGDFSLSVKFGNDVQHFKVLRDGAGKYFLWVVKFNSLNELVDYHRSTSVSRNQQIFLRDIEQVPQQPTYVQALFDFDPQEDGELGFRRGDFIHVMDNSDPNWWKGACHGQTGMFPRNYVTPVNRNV
Sequence of Fes (P07332 whole entry, looked up): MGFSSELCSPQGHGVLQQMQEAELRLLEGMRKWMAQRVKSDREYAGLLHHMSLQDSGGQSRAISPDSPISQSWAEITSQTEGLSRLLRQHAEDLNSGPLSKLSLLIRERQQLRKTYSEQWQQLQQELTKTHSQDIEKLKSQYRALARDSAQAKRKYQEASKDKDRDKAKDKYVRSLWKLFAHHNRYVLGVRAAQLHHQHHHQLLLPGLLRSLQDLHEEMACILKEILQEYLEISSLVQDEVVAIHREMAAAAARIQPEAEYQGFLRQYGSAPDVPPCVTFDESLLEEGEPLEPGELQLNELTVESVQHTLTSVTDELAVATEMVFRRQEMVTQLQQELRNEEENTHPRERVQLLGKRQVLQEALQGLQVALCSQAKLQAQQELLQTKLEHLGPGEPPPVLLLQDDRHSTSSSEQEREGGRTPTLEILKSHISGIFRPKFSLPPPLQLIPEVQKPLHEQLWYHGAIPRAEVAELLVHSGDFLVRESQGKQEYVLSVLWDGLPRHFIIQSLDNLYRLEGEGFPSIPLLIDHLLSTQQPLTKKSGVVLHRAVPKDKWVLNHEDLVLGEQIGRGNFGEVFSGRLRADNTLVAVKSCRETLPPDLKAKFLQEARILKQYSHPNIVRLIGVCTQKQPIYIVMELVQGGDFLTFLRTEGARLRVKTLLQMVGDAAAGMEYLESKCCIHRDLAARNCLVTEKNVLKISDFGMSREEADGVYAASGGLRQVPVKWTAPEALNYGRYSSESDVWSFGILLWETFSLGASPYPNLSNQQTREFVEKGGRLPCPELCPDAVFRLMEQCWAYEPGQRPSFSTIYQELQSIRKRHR
Sequence of Hck (P08631 whole entry, looked up): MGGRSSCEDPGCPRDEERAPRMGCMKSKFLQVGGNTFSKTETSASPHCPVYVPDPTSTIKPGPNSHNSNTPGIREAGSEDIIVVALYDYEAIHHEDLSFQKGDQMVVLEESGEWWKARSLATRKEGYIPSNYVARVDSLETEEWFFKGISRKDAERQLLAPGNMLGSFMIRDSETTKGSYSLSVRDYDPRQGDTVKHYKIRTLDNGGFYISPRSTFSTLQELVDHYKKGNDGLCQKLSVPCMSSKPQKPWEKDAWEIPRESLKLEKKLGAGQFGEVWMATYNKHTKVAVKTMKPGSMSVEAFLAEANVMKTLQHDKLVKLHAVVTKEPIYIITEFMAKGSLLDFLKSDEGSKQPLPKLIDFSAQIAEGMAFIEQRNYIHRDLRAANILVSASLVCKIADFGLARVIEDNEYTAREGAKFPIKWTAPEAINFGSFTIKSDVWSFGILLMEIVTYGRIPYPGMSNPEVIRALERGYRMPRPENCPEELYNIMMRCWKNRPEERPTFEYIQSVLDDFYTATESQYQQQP
Sequence of FGFR3 (P22607 whole entry, looked up): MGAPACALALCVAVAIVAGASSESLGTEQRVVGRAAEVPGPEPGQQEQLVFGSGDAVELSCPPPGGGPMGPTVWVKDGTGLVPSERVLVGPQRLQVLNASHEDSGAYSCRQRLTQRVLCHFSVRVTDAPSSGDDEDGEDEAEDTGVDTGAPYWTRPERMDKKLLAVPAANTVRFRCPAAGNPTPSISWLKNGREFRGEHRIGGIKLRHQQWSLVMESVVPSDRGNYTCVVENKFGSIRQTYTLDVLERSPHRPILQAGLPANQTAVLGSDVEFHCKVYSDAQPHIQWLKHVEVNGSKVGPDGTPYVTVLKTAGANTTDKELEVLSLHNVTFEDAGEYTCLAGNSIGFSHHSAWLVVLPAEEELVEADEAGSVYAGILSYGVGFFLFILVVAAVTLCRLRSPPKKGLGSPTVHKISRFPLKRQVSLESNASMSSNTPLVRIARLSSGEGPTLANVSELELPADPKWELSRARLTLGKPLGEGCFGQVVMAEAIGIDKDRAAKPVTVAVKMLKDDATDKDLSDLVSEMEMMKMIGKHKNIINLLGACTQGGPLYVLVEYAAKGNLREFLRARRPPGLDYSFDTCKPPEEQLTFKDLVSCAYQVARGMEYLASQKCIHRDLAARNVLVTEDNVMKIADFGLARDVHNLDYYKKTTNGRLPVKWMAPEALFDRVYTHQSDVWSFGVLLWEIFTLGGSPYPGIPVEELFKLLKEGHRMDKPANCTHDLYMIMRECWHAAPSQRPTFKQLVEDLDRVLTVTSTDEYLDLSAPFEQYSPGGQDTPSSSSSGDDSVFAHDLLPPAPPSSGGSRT
Sequence of FGFR1 (P11362 whole entry, looked up): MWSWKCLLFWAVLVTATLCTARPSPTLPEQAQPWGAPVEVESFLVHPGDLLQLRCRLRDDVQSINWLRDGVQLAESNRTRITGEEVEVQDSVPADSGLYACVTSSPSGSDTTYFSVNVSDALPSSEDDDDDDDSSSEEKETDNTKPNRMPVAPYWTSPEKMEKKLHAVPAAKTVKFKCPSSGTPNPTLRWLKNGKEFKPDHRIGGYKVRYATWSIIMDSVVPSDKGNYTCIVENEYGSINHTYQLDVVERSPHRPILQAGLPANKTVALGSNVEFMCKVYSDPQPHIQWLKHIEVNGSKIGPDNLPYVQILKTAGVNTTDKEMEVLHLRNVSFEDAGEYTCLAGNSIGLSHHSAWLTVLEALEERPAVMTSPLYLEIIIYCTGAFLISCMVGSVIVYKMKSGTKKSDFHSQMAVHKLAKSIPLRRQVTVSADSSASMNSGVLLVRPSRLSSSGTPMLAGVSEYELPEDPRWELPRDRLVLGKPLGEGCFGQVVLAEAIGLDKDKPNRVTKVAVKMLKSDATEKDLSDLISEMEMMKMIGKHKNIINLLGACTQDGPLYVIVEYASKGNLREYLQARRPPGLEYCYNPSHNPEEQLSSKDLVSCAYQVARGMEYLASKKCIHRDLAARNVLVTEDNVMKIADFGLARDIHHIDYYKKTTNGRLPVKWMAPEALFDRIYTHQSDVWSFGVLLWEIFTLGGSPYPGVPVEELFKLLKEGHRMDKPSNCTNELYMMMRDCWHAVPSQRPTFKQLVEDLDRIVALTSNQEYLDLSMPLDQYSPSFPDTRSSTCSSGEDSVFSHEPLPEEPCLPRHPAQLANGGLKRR
Sequence of Fyn (P06241 whole entry, looked up): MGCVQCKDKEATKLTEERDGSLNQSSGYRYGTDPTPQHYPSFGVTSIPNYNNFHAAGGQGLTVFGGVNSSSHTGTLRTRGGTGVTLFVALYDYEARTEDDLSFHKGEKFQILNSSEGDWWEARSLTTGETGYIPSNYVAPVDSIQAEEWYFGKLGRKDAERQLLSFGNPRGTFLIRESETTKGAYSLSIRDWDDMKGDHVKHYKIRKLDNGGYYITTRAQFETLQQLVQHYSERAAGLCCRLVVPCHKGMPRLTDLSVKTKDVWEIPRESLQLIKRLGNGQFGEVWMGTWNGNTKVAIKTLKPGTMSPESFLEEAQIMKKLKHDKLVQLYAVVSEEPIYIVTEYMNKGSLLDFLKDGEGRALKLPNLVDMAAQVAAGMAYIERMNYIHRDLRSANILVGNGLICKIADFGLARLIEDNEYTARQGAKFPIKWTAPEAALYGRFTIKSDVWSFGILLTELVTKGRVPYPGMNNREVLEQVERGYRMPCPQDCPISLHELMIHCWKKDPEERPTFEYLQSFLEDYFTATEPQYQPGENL

Sequence | phosphorylation enrichment (Fes) | phosphorylation enrichment (EPHB2) | phosphorylation enrichment (AncSZ) | phosphorylation enrichment (Fer (mouse)) | phosphorylation enrichment (MERTK) | phosphorylation enrichment (c-Src) | phosphorylation enrichment (FGFR1) | phosphorylation enrichment (Fyn) | phosphorylation enrichment (c-Abl (mouse)) | phosphorylation enrichment (FGFR3) | phosphorylation enrichment (Hck) | phosphorylation enrichment (Jak2) | phosphorylation enrichment (EPHB1) | SH2 binding enrichment (Grb2 SH2) | SH2 binding enrichment (c-Src SH2) | SH2 binding enrichment (SHP2-C SH2)
TEQDPYNNIVH [MMUT_Y364_R369H] | 0.965 | 0.679 | 1.05 | 0.544 | 0.512 | 0.515 | 0.501 | 0.572 | 0.851 | 0.599 | 0.586 | 0.788 | 0.475 | 0.913 | 2.11 | 0.769
TEVIWYKGDEE | 1.55 | 0.606 | 1.72 | 0.393 | 0.51 | 0.601 | 0.445 | 0.445 | 0.691 | 0.704 | 0.335 | 1.45 | 0.516 | 0.484 | 0.478 | 0.624
TFGVAYRAKDK [CDK11B_Y453_V452A_YF] | 1.03 | 0.575 | 1.08 | 0.342 | 0.358 | 0.282 | 0.418 | 0.437 | 0.498 | 0.484 | 0.537 | 1.09 | 0.472 | 0.842 | 0.507 | 0.674
TGDFGYRAPGF [TNS2_Y668_YF] | 0.784 | 0.414 | 0.724 | 0.44 | 0.542 | 0.593 | 0.542 | 0.6 | 1.02 | 0.601 | 0.409 | 0.724 | 0.501 | 0.965 | 0.463 | 0.726
TGGLEYIVPLM [CLCN4_Y548] | 0.965 | 0.787 | 2.14 | 0.379 | 0.364 | 0.417 | 3 | 0.436 | 0.937 | 2.29 | 0.42 | 2.32 | 0.797 | 0.869 | 0.52 | 0.675
TGNGYYFRVFS [MYBPC3_Y1136_I1131T] | 1.3 | 0.657 | 1.04 | 0.594 | 0.353 | 0.332 | 0.542 | 0.334 | 0.818 | 0.766 | 0.436 | 1.41 | 0.707 | 0.87 | 0.492 | 0.753
TGVRDYIHVVD [GALE_Y241] | 1.01 | 0.531 | 0.846 | 0.413 | 0.331 | 0.381 | 0.587 | 0.426 | 0.586 | 0.593 | 0.493 | 0.71 | 0.499 | 0.81 | 0.549 | 0.658
TKDTFYKQPVF [GBA_Y451_M455V] | 0.766 | 0.523 | 0.634 | 0.308 | 0.417 | 0.421 | 0.406 | 0.386 | 0.764 | 0.473 | 0.312 | 0.695 | 0.409 | 0.905 | 0.417 | 0.66
TLERHYEELQA [SPTBN2_Y834] | 1.06 | 0.522 | 1.04 | 1.7 | 0.578 | 0.505 | 0.472 | 0.541 | 0.836 | 0.677 | 0.591 | 0.947 | 0.648 | 0.586 | 18.6 | 0.52
TLQSMYGCDLG [HLA-B_Y123_V127L] | 1.38 | 0.522 | 1.18 | 0.659 | 0.518 | 0.597 | 0.491 | 0.576 | 1.06 | 0.858 | 0.591 | 1.06 | 0.836 | 0.674 | 0.586 | 0.591
TMKSRYMELYD [BBS2_Y644] | 0.868 | 0.608 | 0.812 | 0.426 | 0.456 | 0.73 | 0.489 | 0.475 | 0.624 | 0.556 | 0.694 | 0.808 | 0.535 | 0.809 | 4.93 | 1.2
TNFSLYLRSLE [MTM1_Y71_R69S_YF] | 1.38 | 0.491 | 1.2 | 0.438 | 0.42 | 0.385 | 0.41 | 0.368 | 0.908 | 0.744 | 0.432 | 1.36 | 0.754 | 0.708 | 0.687 | 0.91
TPTFPYLLPKS [PLD2_Y580_YF] | 0.63 | 0.464 | 0.623 | 0.382 | 0.51 | 0.451 | 0.503 | 0.501 | 0.499 | 0.406 | 0.423 | 0.519 | 0.44 | 1.01 | 0.587 | 1.01
TQNAVYSAANF [DDX5_Y535_G533A_YF] | 0.694 | 4.24 | 0.634 | 6.31 | 8.98 | 8.46 | 0.519 | 10.3 | 7.53 | 0.515 | 12 | 0.526 | 3.15 | 0.958 | 0.631 | 0.704
TQNAVYSAANY [DDX5_Y535_G533A] | 0.924 | 3.99 | 0.643 | 2.8 | 5.57 | 6.96 | 0.586 | 8.89 | 4.56 | 0.619 | 11.1 | 0.527 | 2.46 | 0.88 | 0.708 | 0.956
TSIGNYYKPWF [DHCR24_Y299_N294T] | 0.868 | 15.7 | 1 | 0.438 | 10.1 | 0.707 | 5.29 | 0.59 | 14.6 | 4.18 | 1.03 | 11.5 | 16.3 | 0.844 | 1.27 | 2.71
TSNQEYLYLSM [FGFR1_Y766_D768Y] | 1.31 | 1.83 | 2.64 | 0.845 | 5.28 | 2.88 | 12.5 | 2.08 | 0.975 | 8.18 | 2.67 | 3.5 | 2.28 | 0.812 | 0.447 | 0.553
